Assay results taken from PMC9482650, “Quantitative fragmentomics allow affinity mapping of interactomes” (Nature Communications, 2022).
One block for each binder: values may come before it.

How the values were obtained:
Assay in all cases: holdup assay
Parameters in all cases: key: below the threshold = too weak to quantify, mostly under pKd 3.1 to 4
[1] = biological target: T1, GRIP1_5, Q9Y3R0
T1 sequence (Q9Y3R0 568-668, limits assumed, looked up): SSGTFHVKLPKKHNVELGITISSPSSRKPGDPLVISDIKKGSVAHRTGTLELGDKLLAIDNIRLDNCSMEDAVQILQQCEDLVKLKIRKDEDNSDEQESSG

[2] = biological target: LNX1_3, Q8TBB1
[3] = biological target: FRMPD3, Q5JV73
[4] = biological target: FRMPD2_1, Q68DX3
[5] = biological target: PTPN3, P26045
[6] = biological target: PDZRN4_1, Q6ZMN7
[7] = biological target: T2, PARD3B_1, Q8TEW8
T2 sequence (Q8TEW8 196-299, limits assumed, looked up): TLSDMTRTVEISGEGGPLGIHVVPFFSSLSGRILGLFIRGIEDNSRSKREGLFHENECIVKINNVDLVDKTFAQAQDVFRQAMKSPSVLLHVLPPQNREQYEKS

[8] = biological target: Inadl_10, Q8NI35
[9] = biological target: T3, GRIP1_4, Q9Y3R0
T3 sequence (Q9Y3R0 467-571, limits assumed, looked up): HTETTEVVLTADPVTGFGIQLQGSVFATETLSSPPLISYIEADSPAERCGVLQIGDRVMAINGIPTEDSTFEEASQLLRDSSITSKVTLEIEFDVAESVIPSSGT

[10] = biological target: MAGI3_2, Q5TCQ9
[11] = biological target: T4, SIPA1L2, Q9P2F8
T4 sequence (Q9P2F8 945-1036, limits assumed, looked up): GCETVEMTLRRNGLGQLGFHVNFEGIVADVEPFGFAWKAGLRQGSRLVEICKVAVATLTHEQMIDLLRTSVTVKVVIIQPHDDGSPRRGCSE

[12] = biological target: T5, PDZD7_3, Q9H5P4
T5 sequence (Q9H5P4 857-944, limits assumed, looked up): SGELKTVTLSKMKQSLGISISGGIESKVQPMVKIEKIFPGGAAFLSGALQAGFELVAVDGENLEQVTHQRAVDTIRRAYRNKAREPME

[13] = biological target: MAGI2_3, Q86UL8
[14] = biological target: T6, MPDZ_5, O75970
T6 sequence (O75970 695-796, limits assumed, looked up): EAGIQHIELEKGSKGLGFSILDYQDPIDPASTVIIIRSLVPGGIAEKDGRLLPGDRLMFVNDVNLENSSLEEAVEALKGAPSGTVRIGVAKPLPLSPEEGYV

[15] = biological target: NOS1, P29475
[16] = biological target: NHERF4_2, Q86UT5
[17] = biological target: T7, LNX2_2, Q8N448
T7 sequence (Q8N448 334-432, limits assumed, looked up): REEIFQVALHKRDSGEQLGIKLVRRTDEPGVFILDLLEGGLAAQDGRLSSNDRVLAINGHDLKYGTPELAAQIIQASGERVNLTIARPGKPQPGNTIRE

[18] = biological target: DLG2_3, Q15700
[19] = biological target: PDLIM1, O00151
[20] = biological target: Inadl_6, Q8NI35
[21] = biological target: Inadl_1, Q8NI35
[22] = biological target: Inadl_4, Q8NI35
[23] = biological target: T8, DFNB31_3, Q9P202
T8 sequence (Q9P202 811-907, limits assumed, looked up): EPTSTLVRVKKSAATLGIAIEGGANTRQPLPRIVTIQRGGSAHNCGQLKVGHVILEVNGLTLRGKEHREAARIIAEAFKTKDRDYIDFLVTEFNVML

[24] = biological target: T9, APBA1_2, Q02410
T9 sequence (Q02410 742-832, limits assumed, looked up): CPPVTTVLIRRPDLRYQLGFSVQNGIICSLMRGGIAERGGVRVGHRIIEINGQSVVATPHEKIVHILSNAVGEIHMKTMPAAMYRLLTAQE

[25] = biological target: T10, FRMPD1, Q5SYB0
T10 sequence (Q5SYB0 52-145, limits assumed, looked up): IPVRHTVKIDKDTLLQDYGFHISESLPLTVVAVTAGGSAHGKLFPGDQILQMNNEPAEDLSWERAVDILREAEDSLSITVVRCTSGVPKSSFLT

[26] = biological target: FRMPD4, Q14CM0
[27] = biological target: T11, SHANK1, Q9Y566
T11 sequence (Q9Y566 658-767, limits assumed, looked up): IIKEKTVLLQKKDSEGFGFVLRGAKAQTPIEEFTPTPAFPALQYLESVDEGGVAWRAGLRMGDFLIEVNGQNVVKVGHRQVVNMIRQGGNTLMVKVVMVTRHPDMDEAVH

[28] = plain residues with an end cap or a label only (N-terminal biotin on a linker: gsgsgs; C-terminal amide)
[29] = plain residues with an end cap or a label only (N-terminal biotin on a linker: ahx)

Sequence of FRMPD4, Q14CM0 (Q14CM0 67-160): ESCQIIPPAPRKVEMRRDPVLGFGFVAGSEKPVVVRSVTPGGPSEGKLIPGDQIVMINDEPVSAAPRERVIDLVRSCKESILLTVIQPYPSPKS
Sequence of Inadl_1, Q8NI35 (Q8NI35 113-229): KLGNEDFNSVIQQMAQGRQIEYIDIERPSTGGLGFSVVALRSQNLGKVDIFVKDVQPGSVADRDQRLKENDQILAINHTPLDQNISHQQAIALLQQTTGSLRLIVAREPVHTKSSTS
Sequence of Inadl_4, Q8NI35 (Q8NI35 547-651): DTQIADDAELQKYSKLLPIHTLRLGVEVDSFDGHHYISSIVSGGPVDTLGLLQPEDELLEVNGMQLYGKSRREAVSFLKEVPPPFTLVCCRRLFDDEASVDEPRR
Sequence of FRMPD2_1, Q68DX3 (Q68DX3 770-861): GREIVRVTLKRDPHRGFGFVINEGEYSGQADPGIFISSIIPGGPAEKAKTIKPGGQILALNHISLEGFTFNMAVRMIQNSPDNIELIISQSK
Sequence of NHERF4_2, Q86UT5 (Q86UT5 220-308): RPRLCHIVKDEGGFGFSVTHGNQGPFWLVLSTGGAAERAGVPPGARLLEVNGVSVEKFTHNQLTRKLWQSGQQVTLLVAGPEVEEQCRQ
Sequence of MAGI2_3, Q86UL8 (Q86UL8 600-682): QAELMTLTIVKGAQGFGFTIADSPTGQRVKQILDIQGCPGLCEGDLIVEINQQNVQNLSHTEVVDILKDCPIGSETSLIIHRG
Sequence of MAGI3_2, Q5TCQ9 (Q5TCQ9 398-503): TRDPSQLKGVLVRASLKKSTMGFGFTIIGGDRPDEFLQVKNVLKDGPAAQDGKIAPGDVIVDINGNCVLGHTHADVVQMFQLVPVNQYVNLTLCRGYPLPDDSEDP
Sequence of PTPN3, P26045 (P26045 505-587): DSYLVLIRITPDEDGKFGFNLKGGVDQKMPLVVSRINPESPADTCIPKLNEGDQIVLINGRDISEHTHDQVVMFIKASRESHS
Sequence of Inadl_10, Q8NI35 (Q8NI35 1673-1763): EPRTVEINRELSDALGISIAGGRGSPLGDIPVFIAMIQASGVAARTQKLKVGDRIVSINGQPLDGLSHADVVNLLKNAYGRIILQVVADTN
Sequence of LNX1_3, Q8TBB1 (Q8TBB1 500-596): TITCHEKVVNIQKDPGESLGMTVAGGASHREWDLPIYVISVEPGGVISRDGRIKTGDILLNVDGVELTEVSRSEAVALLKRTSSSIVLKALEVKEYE
Sequence of PDLIM1, O00151 (O00151 1-87): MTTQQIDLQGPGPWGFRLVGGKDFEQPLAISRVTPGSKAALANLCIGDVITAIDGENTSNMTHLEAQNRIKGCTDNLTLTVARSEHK
Sequence of PDZRN4_1, Q6ZMN7 (Q6ZMN7 213-318): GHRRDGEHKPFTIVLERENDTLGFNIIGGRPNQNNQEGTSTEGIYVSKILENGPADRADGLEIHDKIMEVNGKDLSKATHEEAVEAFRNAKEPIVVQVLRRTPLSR
Sequence of NOS1, P29475 (P29475 9-101): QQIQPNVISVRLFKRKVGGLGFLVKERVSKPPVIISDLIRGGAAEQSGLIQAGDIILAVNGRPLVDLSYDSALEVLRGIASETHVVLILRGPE
Sequence of Inadl_6, Q8NI35 (Q8NI35 1058-1167): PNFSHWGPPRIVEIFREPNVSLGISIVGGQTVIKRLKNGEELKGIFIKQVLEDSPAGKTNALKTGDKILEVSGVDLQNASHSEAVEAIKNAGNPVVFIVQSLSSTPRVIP
Sequence of FRMPD3, Q5JV73 (Q5JV73 12-100): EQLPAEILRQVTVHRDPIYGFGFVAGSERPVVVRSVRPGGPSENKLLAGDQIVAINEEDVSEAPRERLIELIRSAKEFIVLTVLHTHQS

pKd [1, 28]: below the threshold
pKd [2, 28]: below the threshold
pKd [3, 28]: below the threshold
pKd [4, 28]: below the threshold
pKd [5, 28]: 3.68
pKd [6, 28]: below the threshold
pKd [7, 28]: below the threshold
pKd [8, 28]: below the threshold
pKd [9, 28]: below the threshold
pKd [10, 28]: below the threshold
pKd [11, 28]: below the threshold
pKd [12, 28]: 3.8
pKd [13, 28]: below the threshold
pKd [14, 28]: below the threshold
pKd [15, 28]: below the threshold
pKd [16, 28]: below the threshold
pKd [17, 28]: below the threshold
pKd [18, 28]: 3.55
pKd [19, 28]: below the threshold
pKd [20, 28]: below the threshold
pKd [21, 28]: below the threshold
pKd [22, 28]: below the threshold
pKd [23, 28]: 4.02
pKd [24, 28]: below the threshold
pKd [25, 28]: below the threshold
pKd [26, 28]: below the threshold
pKd [27, 28]: below the threshold
B1: DFNB31_int, Q9P202 (peptide)
chain: VSVDDVRSTSQGLSSY

pKd [1, 29]: below the threshold
pKd [2, 29]: 3.57
pKd [3, 29]: below the threshold
pKd [4, 29]: 4.13
pKd [5, 29]: 4.23
pKd [6, 29]: 4.23
pKd [7, 29]: 3.99
pKd [8, 29]: 4.03
pKd [9, 29]: below the threshold
pKd [10, 29]: 4.58
pKd [11, 29]: below the threshold
pKd [12, 29]: 4.5
pKd [13, 29]: 3.66
pKd [14, 29]: 4.03
pKd [15, 29]: 3.82
pKd [16, 29]: below the threshold
pKd [17, 29]: 4.32
pKd [18, 29]: 4.24
pKd [19, 29]: 4.31
pKd [20, 29]: 3.55
pKd [21, 29]: below the threshold
pKd [22, 29]: below the threshold
pKd [23, 29]: below the threshold
pKd [24, 29]: 4.39
pKd [25, 29]: below the threshold
pKd [26, 29]: below the threshold
pKd [27, 29]: 3.48
B2: LNX2, Q8N448 (peptide)
chain: TVICWPGSLV
